Results as given in the supplement of paper PMC9112550, “Optimization of the antimicrobial peptide Bac7 by deep mutational scanning” (BMC Biology, 2022).

Tested on: Escherichia coli TOP10
Test: shrunken log2 fold change of peptide-encoding DNA abundance (4.5 h post-induction vs induction); higher = less antimicrobial activity (less host growth inhibition)
Settings: time post-induction: 4.5 h; library: site-saturation at positions 5, 18, 19, 20
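Also: peptides expressed intracellularly from a pBAD plasmid library in pooled LB shake-flask culture, induced with 0.3% L-arabinose, DNA abundance read by NGS, three biological replicates, DESeq2 with apeglm shrinkage.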

Sequence | shrunken log2 fold change
RRIRYRPPRLPRPRPRPMYIPRP | -0.0194
RRIRYRPPRLPRPRPRPFKNPRP | -0.426
RRIRKRPPRLPRPRPRPMNAPRP | 0.228
RRIRARPPRLPRPRPRPSTCPRP | 0.0421
RRIRHRPPRLPRPRPRPMSAPRP | -0.549
RRIRNRPPRLPRPRPRPYGCPRP | -0.146
RRIRFRPPRLPRPRPRPSCTPRP | -0.407
RRIRMRPPRLPRPRPRPCWNPRP | 0.236
RRIRQRPPRLPRPRPRPNMHPRP | -0.34
RRIRIRPPRLPRPRPRPSVCPRP | -0.294
RRIRFRPPRLPRPRPRPQLFPRP | 0.104
RRIRSRPPRLPRPRPRPDDMPRP | 0.0939
RRIRHRPPRLPRPRPRPMTPPRP | 0.0337
RRIRWRPPRLPRPRPRPCRQPRP | -0.134
RRIRCRPPRLPRPRPRPHTSPRP | -0.498
RRIRRRPPRLPRPRPRPTHRPRP | 0.867
RRIRYRPPRLPRPRPRPIWLPRP | -0.175
RRIRGRPPRLPRPRPRPAVIPRP | 0.232
RRIRVRPPRLPRPRPRPWMPPRP | -0.199
RRIRVRPPRLPRPRPRPKPCPRP | 0.205
RRIRYRPPRLPRPRPRPWRHPRP | -0.116
RRIRIRPPRLPRPRPRPALSPRP | 0.114
RRIRTRPPRLPRPRPRPENEPRP | 0.138
RRIRCRPPRLPRPRPRPELYPRP | 0.221
RRIRDRPPRLPRPRPRPREPPRP | 0.112

Sequence | shrunken log2 fold change
RRIRTRPPRLPRPRPRPVDLPRP | -0.0153
RRIRSRPPRLPRPRPRPNTKPRP | -0.259
RRIRNRPPRLPRPRPRPNVCPRP | 0.00455
RRIRSRPPRLPRPRPRPQEAPRP | -0.0452
RRIRYRPPRLPRPRPRPAIMPRP | -0.196
RRIRTRPPRLPRPRPRPMYNPRP | -0.325
RRIRQRPPRLPRPRPRPAWWPRP | 0.95
RRIRIRPPRLPRPRPRPSKVPRP | -1
RRIRYRPPRLPRPRPRPDLKPRP | -0.21
RRIRYRPPRLPRPRPRPDPQPRP | -0.0137
RRIRPRPPRLPRPRPRPQEVPRP | 0.0706
RRIRGRPPRLPRPRPRPKQSPRP | 0.887
RRIRLRPPRLPRPRPRPGKEPRP | 0.0418
RRIRGRPPRLPRPRPRPLYHPRP | 3.13
RRIRIRPPRLPRPRPRPMPVPRP | -0.244
RRIRIRPPRLPRPRPRPYWLPRP | -0.413
RRIRQRPPRLPRPRPRPLPMPRP | 0.0747
RRIRCRPPRLPRPRPRPVEVPRP | -0.0243
RRIRSRPPRLPRPRPRPGFKPRP | 0.122
RRIRIRPPRLPRPRPRPQKWPRP | -0.0915
RRIRMRPPRLPRPRPRPKNRPRP | 0.375
RRIRRRPPRLPRPRPRPCQPPRP | -0.0346
RRIRSRPPRLPRPRPRPLLLPRP | -0.0475
RRIRHRPPRLPRPRPRPIYLPRP | -0.211
RRIRCRPPRLPRPRPRPDTIPRP | -0.738

Sequence | shrunken log2 fold change
RRIRSRPPRLPRPRPRPQVYPRP | -0.276
RRIRPRPPRLPRPRPRPVRTPRP | 0.385
RRIRCRPPRLPRPRPRPNCWPRP | 0.078
RRIRNRPPRLPRPRPRPSWQPRP | -0.0148
RRIRRRPPRLPRPRPRPTVNPRP | 0.15
RRIRSRPPRLPRPRPRPFWGPRP | 0.176
RRIRERPPRLPRPRPRPLVIPRP | -0.169
RRIRRRPPRLPRPRPRPDKNPRP | 0.0344
RRIRQRPPRLPRPRPRPWMGPRP | 0.063
RRIRPRPPRLPRPRPRPTLYPRP | 0.221
RRIRRRPPRLPRPRPRPTICPRP | 0.394
RRIRQRPPRLPRPRPRPTALPRP | -0.0491
RRIRPRPPRLPRPRPRPLWLPRP | -0.0275
RRIRFRPPRLPRPRPRPKWKPRP | -0.0366
RRIRCRPPRLPRPRPRPVRHPRP | 0.403
RRIRDRPPRLPRPRPRPDSTPRP | -0.00421
RRIRLRPPRLPRPRPRPCWDPRP | -0.104
RRIRYRPPRLPRPRPRPGCMPRP | -0.546
RRIRQRPPRLPRPRPRPIIQPRP | -0.248
RRIRKRPPRLPRPRPRPMHAPRP | 0.00395
RRIRARPPRLPRPRPRPMCGPRP | 0.121
RRIRKRPPRLPRPRPRPRKCPRP | 0.0121
RRIRDRPPRLPRPRPRPSMQPRP | -0.157
RRIRNRPPRLPRPRPRPFYEPRP | -0.233
RRIRCRPPRLPRPRPRPRDSPRP | -0.0484

Sequence | shrunken log2 fold change
RRIRERPPRLPRPRPRPPIVPRP | -0.302
RRIRKRPPRLPRPRPRPTMLPRP | 0.131
RRIRGRPPRLPRPRPRPAYDPRP | 0.326
RRIRWRPPRLPRPRPRPQTMPRP | -0.00112
RRIRLRPPRLPRPRPRPRVYPRP | 0.224
RRIRNRPPRLPRPRPRPHQVPRP | 0.0294
RRIRDRPPRLPRPRPRPPCVPRP | 0.152
RRIRSRPPRLPRPRPRPEYWPRP | 0.191
RRIRFRPPRLPRPRPRPCLIPRP | -0.448
RRIRQRPPRLPRPRPRPVQHPRP | -0.0755
RRIRARPPRLPRPRPRPGMGPRP | 0.639
RRIRLRPPRLPRPRPRPFQMPRP | -0.193
RRIRERPPRLPRPRPRPDYGPRP | -0.015
RRIRFRPPRLPRPRPRPDSEPRP | 0.104
RRIRMRPPRLPRPRPRPGESPRP | 1.29
RRIRTRPPRLPRPRPRPDCAPRP | 0.719
RRIRWRPPRLPRPRPRPPRKPRP | 0.731
RRIRERPPRLPRPRPRPYWGPRP | -0.346
RRIRFRPPRLPRPRPRPDPCPRP | -0.191
RRIRPRPPRLPRPRPRPAHPPRP | 0.273
RRIRDRPPRLPRPRPRPPIKPRP | -0.204
RRIRERPPRLPRPRPRPIMFPRP | -0.193
RRIRIRPPRLPRPRPRPMITPRP | -0.616
RRIRIRPPRLPRPRPRPHAMPRP | -0.125
RRIRFRPPRLPRPRPRPYIAPRP | -1.11

Sequence | shrunken log2 fold change
RRIRMRPPRLPRPRPRPDIVPRP | 0.0138
RRIRPRPPRLPRPRPRPEAHPRP | 0.0215
RRIRTRPPRLPRPRPRPKTRPRP | 0.221
RRIRWRPPRLPRPRPRPVKCPRP | -0.015
RRIRSRPPRLPRPRPRPPWRPRP | 0.614
RRIRCRPPRLPRPRPRPERWPRP | 0.877
RRIRFRPPRLPRPRPRPFSVPRP | -1.57
RRIRTRPPRLPRPRPRPKCIPRP | -0.292
RRIRERPPRLPRPRPRPKFVPRP | -0.287
RRIRSRPPRLPRPRPRPEDYPRP | -0.00134
RRIRLRPPRLPRPRPRPEIAPRP | 0.167
RRIRCRPPRLPRPRPRPWNGPRP | -0.0552
RRIRNRPPRLPRPRPRPWDLPRP | 0.0191
RRIRVRPPRLPRPRPRPADTPRP | -0.32
RRIRYRPPRLPRPRPRPFYLPRP | -0.955
RRIRSRPPRLPRPRPRPLVHPRP | -0.253
RRIRDRPPRLPRPRPRPPMIPRP | -0.588
RRIRFRPPRLPRPRPRPDHQPRP | -0.147
RRIRPRPPRLPRPRPRPGCPPRP | 0.0239
RRIRGRPPRLPRPRPRPTRWPRP | 0.739
RRIRPRPPRLPRPRPRPGTHPRP | -0.017
RRIRVRPPRLPRPRPRPWCCPRP | -0.203
RRIRLRPPRLPRPRPRPSKAPRP | -0.0252
RRIRHRPPRLPRPRPRPEERPRP | -0.0858
RRIRPRPPRLPRPRPRPMKSPRP | -0.0679
